Reference: PMC8141032 (Oncogene, 2021)

Target: recombinant Flag-tagged SNF5 (UniProt Q12824 1-385)
Test: pull-down

Sequence of recombinant Flag-tagged SNF5 (Q12824 whole entry): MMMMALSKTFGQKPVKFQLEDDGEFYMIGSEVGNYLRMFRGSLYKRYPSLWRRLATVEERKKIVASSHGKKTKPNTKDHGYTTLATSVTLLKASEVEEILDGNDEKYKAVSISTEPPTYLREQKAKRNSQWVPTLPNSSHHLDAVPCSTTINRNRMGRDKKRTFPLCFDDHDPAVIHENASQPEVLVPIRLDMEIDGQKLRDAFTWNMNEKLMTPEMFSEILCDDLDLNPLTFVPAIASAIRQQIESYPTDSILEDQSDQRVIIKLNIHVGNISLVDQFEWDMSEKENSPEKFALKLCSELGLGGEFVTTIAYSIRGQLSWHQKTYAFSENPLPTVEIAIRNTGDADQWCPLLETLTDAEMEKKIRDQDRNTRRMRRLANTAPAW

B1: recombinant SWIRM domain (amino acids 417–546 of BAF155) (domain or fragment)
chain: TAGGKEDEDPAKGDQSRSVDLGEDNVTEQTNHIIIPSYASWFDYNCIHVIERRALPEFFNGKNKSKTPEIYLAYRNFMIDTYRLNPQEYLTSTACRRNLTGDVCAVMRVHAFLEQWGLVNYQVDPESRPM
  binding result: binds

B2: recombinant Sumo-tagged SWIRM (amino acids 417–580 of BAF155) (domain or fragment)
chain: TAGGKEDEDPAKGDQSRSVDLGEDNVTEQTNHIIIPSYASWFDYNCIHVIERRALPEFFNGKNKSKTPEIYLAYRNFMIDTYRLNPQEYLTSTACRRNLTGDVCAVMRVHAFLEQWGLVNYQVDPESRPMAMGPPPTPHFNVLADTPSGLVPLHLRSPQVPAAQ
  binding result: binds
